Data on two molecules can be found in paper PMC4453472, “First Glycoside Hydrolase Family 2 Enzymes from Thermus antranikianii and Thermus brockianus with β-Glucosidase Activity” (Frontiers in Bioengineering and Biotechnology, 2015).

Common to all, as to experiment: purified protein
Data set [1] has as its system T1, O=[N+]([O-])c1ccc(O[C@@H]2O[C@H](CO)[C@H](O)[C@H](O)[C@H]2O)cc1.
T1 construct: recombinant, pQE-80L (His-tag vector) in E. coli BL21 Star(DE3); heat precipitation and Ni-NTA
It is filed as biochemical, Thermus antranikianii. The conditions noted are these: 90°C, 20 mM citrate buffer pH 6.5, 0-25 mM substrate, 10 min.

The subject of data set [2] is T2, O=[N+]([O-])c1ccc(O[C@@H]2O[C@H](CO)[C@@H](O)[C@H](O)[C@H]2O)cc1.
T2 construct: recombinant, pQE-80L (His-tag vector) in E. coli BL21 Star(DE3); heat precipitation and Ni-NTA
Format: biochemical, Thermus antranikianii. The conditions noted are these: 90°C, 20 mM citrate buffer pH 6.5, 0-10 mM substrate, 10 min.

Substrate in data set [3]: O=[N+]([O-])c1ccc(O[C@@H]2O[C@H](CO)[C@@H](O)[C@H](O)[C@H]2O)cc1
The conditions noted are these: 90°C, 20 mM maleate buffer pH 6.5, 0-10 mM substrate, 10 min.

Substrate in data set [4]: O=[N+]([O-])c1ccc(O[C@@H]2O[C@H](CO)[C@H](O)[C@H](O)[C@H]2O)cc1
The conditions noted are these: 90°C, 20 mM maleate buffer pH 6.5, 0-25 mM substrate, 10 min.

Broadly, the Km is the concentration of substrate that gives half-maximal velocity. As a reminder, the Vmax is the rate approached at saturating substrate. In general, kcat refers to the number of substrate molecules converted per active site and unit of time at saturation. As usually defined, the kcat/Km is the second-order rate constant that governs catalysis at low substrate concentration. TaGH2 (Thermus antranikianii): in data set [1], the Michaelis constant (Km) was 2200 ± 20 µM, the maximal velocity (Vmax) amounted to 2615 ± 3 µmol/min/mg, the kcat was determined as 14000 s⁻¹ and the catalytic efficiency (kcat/Km) worked out at 6.36e+06 M⁻¹ s⁻¹. In data set [2], the Michaelis-Menten constant (Km) came out at 730 ± 30 µM, the Vmax was 4028 ± 21 µmol/min/mg, the kcat is 21600 s⁻¹ and the kcat/Km was determined as 2.95e+07 M⁻¹ s⁻¹.

B1: TbGH2 (Thermus brockianus) (protein)
chain: RLKSALFLAHPAGEPEALPEEGWREVALPHQWTLEGLEAEVGWYRLTLPEGGPRRFLRSLGDYYQEAWLEGRFLGRHEGYFFPWLLELPPGKELYLRVSAPKEPLGQWPRFKRQIKGVLGQHDCRPGGVSPRGQERGTGGLWGGVEVVFREEVALLHLTHRLHPRPGGWRLLVRLLLDAPRPFAERVLLRLSPENFPGEAWTQEVGLRGDAGRGYREVVWDLPEMPLWEVWERGFPHLFRLEAELAQAQVSAPLGFRTVAWDEEGWLLLNGRRLFLRGTNHIPTQWLAAYSQALAEKDVALLKEAGLNAVRVHAHLTHPVFYEVCDREGVLVWQDFPLQWGYAPDEAFAEEAVRQVRAMVEHYGAHPSIYLWCAQNEPTHNRHALGPLLAAELRAQDPSRLVKEASDFREHPYPGWYWGHFRDFLALPGAPLPSEFGAQALPRAELLRRVLGEAAWPPKWEVWAYHNFQPHETFRVAGVEMGTSLESFVENSQAYQARLLSFAIHVYRRAKGKVVGYFQFLFAEPWEGITWAVLDVERIPKKGFHALKEASSPVLLSLVPYRERLEVGGVPLWEAWLVNDLERPLTLRVALALEGPVALPLWEGEVAVAGGEVRRFFSLGELWESPWEAQERLMRVAEALRRLPPGRYRLVGEAWEGERLWSRQVVELVYLEPLVPPGEAW
With B1, in data set [3], the Km came to 500 ± 20 µM, the maximal velocity (Vmax) stood at 778 µmol/min/mg, the kcat was found to be 3900 s⁻¹ and the catalytic efficiency (kcat/Km) was 7.8e+06 M⁻¹ s⁻¹. Besides, in data set [4], the Michaelis-Menten constant (Km) worked out at 3560 ± 70 µM, the Vmax came to 1333 ± 11 µmol/min/mg, the catalytic constant (kcat) is 6680 s⁻¹ and the catalytic efficiency (kcat/Km) came out at 1.88e+06 M⁻¹ s⁻¹.
